Biological target: CD16a on NK cells of cynomolgus monkey peripheral blood (cynomolgus monkey (endogenous on NK cells of peripheral blood)) (UniProt Q8SPW2)
Assay: flow cytometry on cells; cynomolgus monkeys given HpmAb1/D1632 (0.5-20 mg/kg s.c., day 0) or IVIG (1 g/kg i.v., days 0 and 1) and anti-platelet antibody on day 1; blood NK cells (CD45+CD14-CD159a+) stained with Fc-competing anti-CD16 3G8 (unoccupied CD16a) and non-competing DJ130c (all CD16a); free ratio and receptor occupancy (RO) against baseline (day 0)

UniProt Q8SPW2, sequence (Q8SPW2 17-254): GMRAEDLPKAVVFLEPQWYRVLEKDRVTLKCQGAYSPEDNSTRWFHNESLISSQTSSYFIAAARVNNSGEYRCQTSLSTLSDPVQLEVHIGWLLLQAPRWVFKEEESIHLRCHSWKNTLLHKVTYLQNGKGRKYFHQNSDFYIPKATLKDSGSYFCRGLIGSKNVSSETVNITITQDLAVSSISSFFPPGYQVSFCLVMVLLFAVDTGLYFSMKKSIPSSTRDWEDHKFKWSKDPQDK

- free ratio (unoccupied CD16a on NK cells, % of baseline) on day 1: 40.3%
Substance: Intravenous immunoglobulin (IVIG) (antibody)

From article PMC9993454
